Common to all, as to experiment: tryptophan fluorescence quenching
Holding throughout (conditions): Fluorescence and EMSA: PBS (130 mM NaCl, 2.7 mM KCl, 10 mM Na2HPO4, 2 mM KH2PO4, pH 7.4), 25 C; ELISA: 10 mM KH2PO4, 50 mM KCl, pH 7, 0.1% Tween 20
(In general: In EMSA bound probe runs differently from free probe, usually more slowly.)

Series [1] has as its target T1, Sac7d (Sulfolobus acidocaldarius) (UniProt P13123).
T1 sequence: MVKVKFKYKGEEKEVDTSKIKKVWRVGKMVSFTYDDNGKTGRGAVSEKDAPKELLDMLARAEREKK

Series [2] deals with T2, Ssh7b (Sulfolobus shibatae) (UniProt O59632).
T2 sequence: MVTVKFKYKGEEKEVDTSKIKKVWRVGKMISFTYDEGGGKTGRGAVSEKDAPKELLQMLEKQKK

In series [3] the test system is Sto7.
For series [4], the target named is T3, Ssh7a (Sulfolobus shibatae) (UniProt P61990).
T3 sequence: T2 sequence with V2A, E14Q, T17I

Series [5] deals with T4, Sac7e (Sulfolobus acidocaldarius) (UniProt P13125).
T4 sequence: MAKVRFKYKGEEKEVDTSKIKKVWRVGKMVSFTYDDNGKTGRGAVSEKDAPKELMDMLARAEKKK

Series [6] deals with T5, Aho7a (Acidianus hospitalis) (UniProt F4B991).
T5 sequence: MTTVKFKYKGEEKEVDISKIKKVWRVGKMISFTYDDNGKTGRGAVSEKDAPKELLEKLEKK

In series [7] the target is T6, Aho7c (Acidianus hospitalis) (UniProt F4B8X5).
T6 sequence: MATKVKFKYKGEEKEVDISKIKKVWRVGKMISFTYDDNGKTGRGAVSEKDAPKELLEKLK

Series [8] concerns the target T7, Sso7d (Sulfolobus solfataricus) (UniProt P39476).
T7 sequence: T2 sequence with V2A, T17I

Series [9] deals with T8, Aho7b (Acidianus hospitalis) (UniProt F4B9I5).
T8 sequence: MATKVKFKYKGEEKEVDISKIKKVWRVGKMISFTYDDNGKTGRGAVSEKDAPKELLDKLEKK

Series [10] concerns Sis7b.
Series [11] deals with Mcu7.
In series [12] the test system is Sis7a.
Series [13] relates to Mse7.
Series [14] deals with T1, Sac7d (Sulfolobus acidocaldarius). This is another data set of the same source.

Where a chain is given by its changes, count along the chain named.

Broadly, the Kd is a measure of binding affinity in units of concentration. Read a low Kd as a tighter complex. In the case of calf-thymus DNA (ct-DNA), sonicated, the Kd in series [1] stood at 0.203 µM; in [2], 22 µM; in series [3], 14 µM; in series [4], 18 µM; in series [5], 11 µM; in series [6] it was 16 µM. The dissociation constant Kd in [7] worked out at 16 µM; in series [8], 17 µM; in series [9], 13 µM; in series [10], 16 µM; in series [11], 16 µM; in series [12], 15 µM. In addition, the equilibrium dissociation constant (Kd) in [13] was 15 µM; in series [14], 13 µM.
